Publication PMC6748616 (mAbs, 2019)

Columns and labels:
Assay in all cases: SPR
[1] = molecular target: IgV domain of human SIRPβ1 (Homo sapiens, SIRPβ1 NP_006056.2, UniProt O00241)
[2] = molecular target: T1, IgV domain of cynomolgus SIRPα (Macaca fascicularis, EHH65484.1 allele)
T1 chain: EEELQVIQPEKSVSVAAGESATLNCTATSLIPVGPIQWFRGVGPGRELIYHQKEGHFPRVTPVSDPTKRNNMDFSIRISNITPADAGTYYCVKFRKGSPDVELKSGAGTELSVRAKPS

[3] = molecular target: IgV domain of human SIRPα v2 (Homo sapiens, SIRPα allele v2 …, strain)
[4] = molecular target: IgV domain of human SIRPα v1 (Homo sapiens (Human)., UniProt P78324-1)
[5] = molecular target: IgV domain of human SIRPγ (Homo sapiens, SIRPγ NP_061026.2, UniProt Q9P1W8)
[6] = molecular target: IgV domain of mouse C57BL/6 SIRPα (Mus musculus, strain C57BL/6, UniProt P97797, strain)
[7] = molecular target: T2, IgV domain of mouse NOD SIRPα (Mus musculus, strain NOD, strain)
T2 chain: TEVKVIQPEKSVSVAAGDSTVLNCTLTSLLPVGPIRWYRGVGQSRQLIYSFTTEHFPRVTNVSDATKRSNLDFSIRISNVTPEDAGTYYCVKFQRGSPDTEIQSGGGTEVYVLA

[8] = molecular target: T3, IgV domain of mouse BALB/c SIRPα (Mus musculus, strain BALB/c, strain)
T3 chain: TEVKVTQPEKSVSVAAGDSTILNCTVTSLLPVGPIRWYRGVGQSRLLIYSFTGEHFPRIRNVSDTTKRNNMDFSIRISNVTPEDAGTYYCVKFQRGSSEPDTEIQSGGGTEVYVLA

Chain of IgV domain of human SIRPα v1 (P78324 31-149): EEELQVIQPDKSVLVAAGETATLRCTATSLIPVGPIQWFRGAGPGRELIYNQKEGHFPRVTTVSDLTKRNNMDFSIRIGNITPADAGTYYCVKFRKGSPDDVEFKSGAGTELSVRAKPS

B1: anti-SIRPα antibody clone 119, full-length IgG1 (antibody, V domains shown)
VH: DVQLLESGGGVVQPGGSLRLSCAASGFSFSNFAMTWVRQAPGEGLEWVSTIGSGDTYYADSVKGRFTISRDNSKNTLYLQMNSLRAEDTAVYYCAKDSTVSWSGDFFDYWGQGTLVTVSS
VL: EIVLTQSPATLSVSPGERATFSCRASQNVKNDLAWYQQRPGQAPRLLIYAARIRETGIPERFSGSGSGTEFTLTITSLQSEDFAVYYCQQYYDWPPFTFGGGTKVEIK
Kd [1]: 0.342 nM
Kd [2]: 0.112 nM
Kd [3]: 0.0682 nM
Kd [4]: 0.183 nM
Kd [5]: 0.267 nM
binding result [6]: no binding (tested: 100 nM)

B2: anti-SIRPα antibody clone 115, full-length IgG1 (antibody, V domains shown)
VH: DVQLVESGGGVVRPGESLRLSCAASGFSFSSYAMNWVRQAPGEGLEWVSRINSGGGGTDYAESVKGRFTISRDNSENTLYLQMNSLRAEDTAVYYCAKQYDWNSFFDYWGLGALVTVSS
VL: ETVLTQSPATLSVSPGERATLSCRASQTVGSKLAWHQQKPGQAPRLLIYDATNRATGISDRFSGSGSGTDFTLTISSLQTEDSAVYYCQQYYYWPPYRFGGGTKVEIK
binding result [1]: binds
Kd [2]: 2.41 nM
Kd [3]: 1.86 nM
Kd [4]: 0.426 nM
binding result [5]: binds
binding result [6]: no binding (tested: 100 nM)

B3: anti-SIRPα antibody clone 136, full-length IgG1 (antibody, V domains shown)
VH: not shown
VL: ETVLTQSPGTLTLSPGERATLTCRASQSVYTYLAWYQEKPGQAPRLLIYGASSRATGIPDRFSGSGSGTEFTLTISSLQSEDFAVYYCQQYYDRPPLTFGGGTKVEIK
Kd [1]: 4.35 nM
Kd [2]: 2.15 nM
Kd [3]: 1.63 nM
Kd [7]: 0.554 nM
Kd [8]: 0.35 nM
Kd [4]: 0.458 nM
Kd [5]: 23.9 nM
Kd [6]: 12.7 nM

B4: anti-SIRPα antibody clone 3, full-length IgG1 (antibody, V domains shown)
VH: AVTLDESGGGLQTPGGALSLVCKASGFIFSDYGMNWVRQAPGKGLEFVAQITSGSRTYYGAAVKGRATISRDNRQSTVKLQLNNLRAEDTGIYFCARDFGSGVGSIDAWGNGTEVIVSS
VL: ALTQPASVSANLGGTVKITCSGSRGRYGWYQQRSPGSAPVTVIYRDNQRPSNIPSRFSSSTSGSTSTLTITGVQADDESVYFCGSYDGSIDIFGAGTTLTVL
Kd [1]: 1.63 nM
Kd [2]: 2.29 nM
Kd [3]: 0.0767 nM
Kd [7]: 1.63 nM
Kd [8]: 1.16 nM
Kd [4]: 0.162 nM
Kd [5]: 83.6 nM
Kd [6]: 3.65 nM

B5: anti-SIRPα clone 218, scFv-Fc (scFv, V domains shown)
VH: DVQLVESGGGVVRPGESLTLSCTASGFTFTSSTMNWVRQAPGEGLDWVSSISTSGVITYYADSVKGRATISRDNSKNTLYLRLFSLRADDTAIYYCATDTFDHWGPGTLVTVSS
VL: ALTQPASVSANPGETVKITCFGSSGNYGWFQQKSPGSAPVTVIHYNNKRPSDIPSRFSGSKSGSTGTLTITGVRAEDEAVYFCGAWETGSATFGAGTTLTVL
binding result [1]: binds
Kd [2]: 0.0599 nM
Kd [3]: 0.276 nM
Kd [4]: 0.123 nM
Kd [5]: 0.0636 nM
binding result [6]: no binding (tested: 100 nM)
